The series can be described thus: soluble on expression in E. coli; label from the status in PepcDB or PDB records.
On to “MANAFKLFPTRDTNYLEATYVHHDLNVVWLKLSFRVPLETLFLEYRQQGGHTLILSRQVYENILVRDTDFMSVFCNDLQAILEDSPAIERFFVELSPYYWGKEDFDKRMSAWSQSVQLYDWLVTFLDDRQEELKLKLVSLCEFTSLQILSIIRLISSNYLETIKLTFRKNDEQLESNFQEILKTKQWNNAKAAYVKGCCTPIASILHFQKATVQLDILSIDDLRVLKELATKGTLNIFKIRFHSIADSITDNSLIELFGESKHSFLWEWSINGIDNREIECIYSKTYKEFSIFYSEEYQKLGHGVPENNKSEETTLCTSEHSSKVLQNALLMKNILNHLERKDICRLQRTSRKIHESIANLKPDSKIVALEISLVKIECVTVNVFHKMGVKKLIYENVGLSNVDPTAKLITAMERHNQGVFGEEICFAHGRWQLGFSLSAFAVDLIRNLKDQKSEIQELWLDFSLTQARLRERPDKEHIKILVLATRQLLDVISSAGKTLDRQIPVKKLSIQALGHKPLLQILPLLNPVTLKTIEIQKSEVIMAKKPLNLNKVVQLDQWKNAEEVLIKSITAPGQIQHFLHFVVAEVNLESISMGDVLELKNVFQQNSNKLKKFKAFFENSDIDERIYDDQFLGFPYKRPENPSTNLPSVWFVRIPTSTVLHILYYKNRKMISFSRVSNSSVPSDALM”, for which the “soluble on expression in E. coli” value is on record as “not soluble”.

As for “MANPIKIGIGGPVGAGKTQLIEKVVKRLSKEMSIGVITNDIYTKEDEKILVNSGVLPESRIIGVETGGCPHTAIREDASMNFAAIDELLERHDDIELIFIESGGDNLAATFSPELVDFSIYIIDVAQGEKIPRKGGQGMIKSDFFVINKTDLAPYVGASLEQMAEDTKVFRGKRPFTFTNLKTDEGLDEVIDWIERDTLLKGLS”, the “soluble on expression in E. coli” value is on record as “not soluble”.

Take “MANSHVNTLNPGDPFRDWLVEEVVANRIRDKKCCVNVFKYNSSHTVCRYQFKGEHFSVMAKFFAEPTGKLKAYNPYKGMMNEYRNLKKAASIINVAKPLAVRKDFNCVLVTEHIPGKSLGWYLKREEDLYGRLSAVAHMLRNLHDNTKSSYNKENEFRNFHDVLDHLKLDYGTRETFNKLLGEWWYSSLLDRDHGCMVHRDVTPSNYIFCKEKPYAIDFESSWFEAHPIRDLGVLTAELKNEFELHKGGGWKAEPYIGNFLWEYSRGEKDFYSITGILPFFMSIGLLRSARLHQGDYRNYLINEARECLGAIYRGNLEHHHHHH”: the “soluble on expression in E. coli” value was “not soluble”.

As to “MANSMATLSRRLYRSLLSNPRISQASMSFCTNNITSPEDSDFDELESPIEPKASDPVSRFSGEERVMEERPLENGLDSGIFKAILVGQVGQLPLQKKLKSGRTVTLFSVGTGGIRNNRRPLINEDPREYASRSAVQWHRVSVYPERLADLVLKNVEPGTVIYLEGNLETKIFTDPVTGLVRRIREVAIRRNGRVVFLGKAGDMQQPSSAELRGVGYY”, the “soluble on expression in E. coli” value is recorded as “soluble”.

For “MANVSLNKVDKQALVHQPNLLRECFALLVNAHYQTSPNDLLHLLRDDNSSVYLAMDKQNIIGVILTVEEGGLDDELIEAIQLGQRRPKGHLTPITIINQLGLVKVGKLITSRVMRIAVHPDLQGSGIGKRMLTLLEESVGAHVDYLSTSFGATDELIQFWQQAGYQSIRLGTMRDAASGCYSLLMVRQLANKSQ”, the “soluble on expression in E. coli” value is recorded as “not soluble”.

On to “MAPKDQAADMDYDQTKKMVVDILKTDDGKKAIKELLNDDAMNEALVIDQDAIKGTIEKTLTSKKGEEFWKNIFEDTDFAEGFAKTLQTEHEKVIKKLMKDPDYQKMLMSVMQDPGMDKKYSQLAKSQEFRSYLEEVINETLSSPLYKKQFEDELKKAAKDTAKESELEHHHHHH”, for which the “soluble on expression in E. coli” value is “soluble”.

As to “MAPLLSLCMIVKNEAHQLRRCLQSVQPWVDEIIIVDTGSTDGTIAIACEFTPHVHAVAWQGDFAAARNAALAQATGEWVFYIDADEELVVTDAHWQDQLTAPGAHAINQWSLLRREQSSDRNWSEFWNVRFGRRFPDLHFAGALHEQLCYREREAVVGELQGVYLIHHNQQSQEQFLAKIRDRNIPILETMVQQGDRRLQNLVCLGDHYAACGDSDRSQAWYEQALEEIASAVEQGILPRETTWLRHLLFWVSYRAFEAKDYETAQYYLSYGLRFFDRYPPLLYVAGLFVFELGLPRGALPYFHRCLDLFEAGSYDRTEPFDRQWMTTQPAYSLGYTYMTLQERDRAIAYFQKTLKFNPDYPPAQMYLEQLLRASANQGLEHHHHHH”, the “soluble on expression in E. coli” value is reported as “not soluble”.

As for “MAPRDIRPGAEYGDIIEEAIVTCKVFLIVFSETSQISRWVRSELNIGFSSNKPIIPFRIDPTDLKGSMKLMLNDKHWLNAYPNPEEKFSELAAVILDLLQHPAVDTISPPGFQPASNVASADGSNAGAQGLFGKLLNQLFVKRRVKVTSDHAAEIFLNGERKGKLDAYETGNYSVSEDFYQLEVYSCEYGKKVKCEYSGSFSNSSTVIISVDMATAEKQYLMKAKNITSGQINDLGIIFLDEGKFEDAQECFLKAASMGEAAAAYNLGMMYHFGKGVEIDYDVAREYYEEAVKSDYPLALNNLGSIYYNGHGVRKDIAKSFPYFCRAAERGVESAQFTVATMLFYGQGVAVDKAKAKKWFQKAAAQGCKDSQNYLNSWVDDLEHHHHHH”, the “soluble on expression in E. coli” value is given as “soluble”.

Regarding “MAQAFVDATWPQAAKAAQSLGVPAHFLVAQAALETGWGKSQIRNKDGTPSYNLFNIKAGSNWTGKVVEARTVEYENGQRKVRVERFRAYDSYEQAFQDYADLVGNSPRYAKVAGKTDGHAFARALQEGGYATDPSYADKLARVINGNALRQRLMASAASARGLEHHHHHH”, the “soluble on expression in E. coli” value was “soluble”.

Consider “MAQEFVNCKIQPGKVVVFIKPTCPYCRRAQEILSQLPIKQGLLEFVDITATNHTNEIQDYLQQLTGARTVPRVFIGKDCIGGCSDLVSLQQSGELLTRLKQIGALQ”, for which the “soluble on expression in E. coli” value is listed as “soluble”.

Consider “MAQHHGHLGAVYDAAGPQEVAALYDRWAETYESEMARAGYRHPAIGVALLARHLPRGARPLLDAGAGTGLLGEWLEIVGYPEVEALDISAGMLEVARAKGIYARCHNLPLGAALPFRDGAFAGIISTGVFTTGHVGAEALPELLRICRPGGVIVLTVKESLWQGGFAVSLEAAVASGLEHHHHHH”, for which the “soluble on expression in E. coli” value is listed as “not soluble”.

On to “MAQITTTDANEFSSSAEFIPMRGFSNCHLQTMLPRLFRRQVKFTPYWQRLELPDGDFVDLAWSENPAQAQHKPRLVVFHGLEGSLNSPYAHGLVEAAQKRGWLGVVMHFRGCSGEPNRMHRIYHSGETEDASWFLRWLQREFGHAPTAAVGYSLGGNMLACLLAKEGNDLPVDAAVIVSAPFMLEACSYHMEKGFSRVYQRYLLNLLKANAARKLAAYPGTLPINLAQLKSVRRIREFDDLITARIHGYADAIDYYRQCSAMPMLNRIAKPTLIIHAKDDPFMDHQVIPKPESLPPQVEYQLTEHGGHVGFIGGTLLHPQMWLESRIPDWLTTYLEAKSCLEHHHHHH”, for which the “soluble on expression in E. coli” value is recorded as “not soluble”.

For the sequence “MAQKKPKRNLSALKRHRQSLKRRLRNKAKKSAIKTLSKKAIQLAQEGKAEEALKIMRKAESLIDKAAKGSTLHKNAAARRKSRLMRKVRQLLEAAGAPLIGGGLSA”, the “soluble on expression in E. coli” value is listed as “soluble”.

Regarding “MAQKTFTVTADSGIHARPATTLVQAASKFDSDINLEFNGKTVNLKSIMGVMSLGIQKGATITISAEGSDEADALAALEDTMSKEGLGE”, the “soluble on expression in E. coli” value is “soluble”.

In the case of “MAQMYFYYSAMNAGKSTTLLQSSFNYQERGMTPVIFTAALDDRYGVGKVSSRIGLQSDAHLFRPDTNLYQEIAALHEVEKRHCIL”, the “soluble on expression in E. coli” value is reported as “not soluble”.

Consider “MAQSKHGLTKEMTMKYRMEGCVDGHKFVITGEGIGYPFKGKQAINLCVVEGGPLPFAEDILSAAFNYGNRVFTEYPQDIVDYFKNSCPAGYTWDRSFLFEDGAVCICNADITVSVEENCMYHESKFYGVNFPADGPVMKKMTDNWEPSCEKIIPVPKQGILKGDVSMYLLLKDGGRLRCQFDTVYKAKSVPRKMPDWHFIQHKLTREDRSDAKNQKWHLTEHAIASGSALP”, for which the “soluble on expression in E. coli” value is “soluble”.

For “MARKHIYIAYTGGTIGMKKSDHGYVPVAGFMEKQLASMPEFHRPEMPLFTIHEYDPLMDSSDMTPADWQLIADDIAANYDKYDGFVILHGTDTMAYTASALSFMFENLGKPVIVTGSQIPLADLRSDGQANLLNALHVAANYPINEVTLFFNNRLMRGNRSRKSHADGFSAFSSPNLPPLLEAGINIELSTNVKVDEKPSGEFKVNPITPQPIGVITMYPGISHEVIRNTLLQPVNAMILLTFGVGNAPQNPELLAQLKAASERGVIVVNLTQCLAGKVNMGGYATGCALADAGVISGYDMTPEAALAKLHYLLSQNLSYEEVKAKMQQVLRGEMTL”, the “soluble on expression in E. coli” value is “soluble”.
